For test [1], the target named is T1, HLA-C*04:01 (human).
T1 construct: MHC class I molecule expressed by the cells or tissue sample (endogenous or BAP-tagged), immunopurified before peptide elution
Description: MS validation of HLA class I-presented peptide; sample human prostate. How it is done: (§1) Frozen cell pellets endogenously expressing MHC molecules (untagged) or biotin acceptor peptide (BAP)-tagged MHC molecules were lysed by pipetting and end-over-end rotation for twenty minutes using lysis buffer [20 mM Tris-Cl pH 8, 100 mM NaCl, 6 mM MgCl2, 1.5% (v/v) Triton X-100, 60 mM octyl B-D-glucopyranoside, 0.2 mM of 2-Iodoacetamide, 1 mM EDTA pH 8, 1 mM PMSF, 1× complete EDTA-free protease inhibitor cocktail (Roche)] plus benzonase nuclease for twenty minutes. Tissue samples were homogenized in lysis buffer plus benzonase nuclease. All lysates were cleared by centrifugation. Samples with untagged MHC molecules were subsequently incubated with GammaBind Plus Sepharose Beads (GE Healthcare) pre-charged with a pan-HLA A/B/C antibody (clone W6/32) overnight at 4 C with end-over-end rotation. BAP-tagged samples were biotinylated with 0.56 μM biotin, 1 mM ATP, and 1 μM BirA biotin ligase for 10 minutes, and subsequently incubated with High-Capacity NeutrAvidin Agarose resin for 30 minutes at 4° C. with end-over-end rotation. Following enrichment, beads were washed 2× with wash buffer A [20 mM Tris-Cl pH 8, 100 mM, NaCl, 60 mM octyl B-D-glucopyranoside, 0.2 mM of 2-Iodoacetamide, 1 mM EDTA pH 8] and wash buffer B [10 mM Tris-Cl pH 8] using a positive pressure manifold. MHC molecules were eluted using 10% acetic acid and peptides were isolated using 10K molecular weight cut-off filtration following filter passivation with 1% bovine serum albumin (BSA). If required, samples were next reduced and alkylated using 5 mM Bond-Breaker TCEP solution at 60° C. for 30 min followed by 15 mM 2-Iodoacetamide for 30 min, protected from light. Samples were next acidified using 100% formic acid and desalted using 10 mg Sep-Pak tC18 μElution plates with peptide elutions at 15% acetonitrile and 50% acetonitrile, which were subsequently pooled. The volume of eluted peptides was reduced using vacuum centrifugation.

Test [2] has as its target T2, HLA-A*01:01 (human).
T2 construct: MHC class I molecule expressed by the cells or tissue sample (endogenous or BAP-tagged), immunopurified before peptide elution
As to the kind of experiment: MS validation of HLA class I-presented peptide; samples GBM, A375. Here is the method: as §1, with “MHC molecules were eluted using 10% acetic acid and peptides were isolated using 10K molecular weight cut-off filtration following filter passivation with 1% bovine serum albumin (BSA). If required, samples were next reduced and alkylated using 5 mM Bond-Breaker TCEP solution at 60° C. for 30 min followed by 15 mM 2-Iodoacetamide for 30 min, protected from light. Samples were next acidified using 100% formic acid and desalted using 10 mg Sep-Pak tC18 μElution plates with peptide elutions at 15% acetonitrile and 50% acetonitrile, which were subsequently pooled. The volume of eluted peptides was reduced using vacuum centrifugation.” left out

For test [3], the target named is T3, HLA-A*02:01 (human).
T3 construct: MHC class I molecule expressed by the cells or tissue sample (endogenous or BAP-tagged), immunopurified before peptide elution
As to the kind of experiment: MS validation of HLA class I-presented peptide; samples CAMA1, HCC1500. How it is done:
as §1, with “MHC molecules were eluted using 10% acetic acid and peptides were isolated using 10K molecular weight cut-off filtration following filter passivation with 1% bovine serum albumin (BSA). If required, samples were next reduced and alkylated using 5 mM Bond-Breaker TCEP solution at 60° C. for 30 min followed by 15 mM 2-Iodoacetamide for 30 min, protected from light. Samples were next acidified using 100% formic acid and desalted using 10 mg Sep-Pak tC18 μElution plates with peptide elutions at 15% acetonitrile and 50% acetonitrile, which were subsequently pooled. The volume of eluted peptides was reduced using vacuum centrifugation.” left out

Test [4] deals with T4, HLA-C*06:02 (human).
T4 construct: MHC class I molecule expressed by the cells or tissue sample (endogenous or BAP-tagged), immunopurified before peptide elution
As to the kind of experiment: MS validation of HLA class I-presented peptide; sample MDAPCa2b. Here is the method: as §1, with “MHC molecules were eluted using 10% acetic acid and peptides were isolated using 10K molecular weight cut-off filtration following filter passivation with 1% bovine serum albumin (BSA). If required, samples were next reduced and alkylated using 5 mM Bond-Breaker TCEP solution at 60° C. for 30 min followed by 15 mM 2-Iodoacetamide for 30 min, protected from light. Samples were next acidified using 100% formic acid and desalted using 10 mg Sep-Pak tC18 μElution plates with peptide elutions at 15% acetonitrile and 50% acetonitrile, which were subsequently pooled. The volume of eluted peptides was reduced using vacuum centrifugation.” left out

Test [5] deals with T3, HLA-A*02:01. Description: MS validation of HLA class I-presented peptide; sample A375. Here is the method: as §1, with “MHC molecules were eluted using 10% acetic acid and peptides were isolated using 10K molecular weight cut-off filtration following filter passivation with 1% bovine serum albumin (BSA). If required, samples were next reduced and alkylated using 5 mM Bond-Breaker TCEP solution at 60° C. for 30 min followed by 15 mM 2-Iodoacetamide for 30 min, protected from light. Samples were next acidified using 100% formic acid and desalted using 10 mg Sep-Pak tC18 μElution plates with peptide elutions at 15% acetonitrile and 50% acetonitrile, which were subsequently pooled. The volume of eluted peptides was reduced using vacuum centrifugation.” left out

Test [6] deals with T5, HLA-A*24:02 (human).
T5 construct: MHC class I molecule expressed by the cells or tissue sample (endogenous or BAP-tagged), immunopurified before peptide elution
Description: MS validation of HLA class I-presented peptide; sample human prostate. How it is done: as §1

The target of test [7] is T3, HLA-A*02:01. The description is as above. How it is done: as §1
Test [8] has as its target T5, HLA-A*24:02. As to the kind of experiment: MS validation of HLA class I-presented peptide (validation cell empty in Table 1C); sample human prostate.
The target of test [9] is T2, HLA-A*01:01. Description: MS validation of HLA class I-presented peptide; sample human prostate. How it is done: as §1
Test [10] concerns the target T6, HLA-B*07:02 (human).
T6 construct: MHC class I molecule expressed by the cells or tissue sample (endogenous or BAP-tagged), immunopurified before peptide elution
As to the kind of experiment: MS validation of HLA class I-presented peptide (second allele under Allele (MS)); samples MDAPCa2b, human prostate, breast cancer. Here is the method: as §1, with “MHC molecules were eluted using 10% acetic acid and peptides were isolated using 10K molecular weight cut-off filtration following filter passivation with 1% bovine serum albumin (BSA). If required, samples were next reduced and alkylated using 5 mM Bond-Breaker TCEP solution at 60° C. for 30 min followed by 15 mM 2-Iodoacetamide for 30 min, protected from light. Samples were next acidified using 100% formic acid and desalted using 10 mg Sep-Pak tC18 μElution plates with peptide elutions at 15% acetonitrile and 50% acetonitrile, which were subsequently pooled. The volume of eluted peptides was reduced using vacuum centrifugation.” left out

For test [11], the target named is T7, HLA-C*07:01 (human).
T7 construct: MHC class I molecule expressed by the cells or tissue sample (endogenous or BAP-tagged), immunopurified before peptide elution
As to the kind of experiment: MS validation of HLA class I-presented peptide; samples MDAPCa2b, human prostate, breast cancer. How it is done: as §1, with “MHC molecules were eluted using 10% acetic acid and peptides were isolated using 10K molecular weight cut-off filtration following filter passivation with 1% bovine serum albumin (BSA). If required, samples were next reduced and alkylated using 5 mM Bond-Breaker TCEP solution at 60° C. for 30 min followed by 15 mM 2-Iodoacetamide for 30 min, protected from light. Samples were next acidified using 100% formic acid and desalted using 10 mg Sep-Pak tC18 μElution plates with peptide elutions at 15% acetonitrile and 50% acetonitrile, which were subsequently pooled. The volume of eluted peptides was reduced using vacuum centrifugation.” left out

The target in test [12] is T3, HLA-A*02:01. As to the kind of experiment: MS validation of HLA class I-presented peptide; samples CD165, HCC1500, CAMA1. Here is the method:
as §1, with “MHC molecules were eluted using 10% acetic acid and peptides were isolated using 10K molecular weight cut-off filtration following filter passivation with 1% bovine serum albumin (BSA). If required, samples were next reduced and alkylated using 5 mM Bond-Breaker TCEP solution at 60° C. for 30 min followed by 15 mM 2-Iodoacetamide for 30 min, protected from light. Samples were next acidified using 100% formic acid and desalted using 10 mg Sep-Pak tC18 μElution plates with peptide elutions at 15% acetonitrile and 50% acetonitrile, which were subsequently pooled. The volume of eluted peptides was reduced using vacuum centrifugation.” left out

For the molecule TWIAPPLQV, the binding result in test [1] was “binds”.

Regarding EVDPASNTY, the binding result in test [2] is listed as “binds”.

Turning to SLSKILDTV, the binding result in test [3] is “binds”. Consider AYSEKVTEF, for which the binding result in test [4] is “binds”. Regarding KVDELAHFL, the binding result in test [5] was “binds”. On to LFHPEDTGQVF, for which, in test [6], the binding result was “binds”. On to LLANGRMPTV, for which the binding result in test [7] is “binds”. GYLQGLVSF: in test [8], the binding result is “binds”. Regarding KVLEHVVRV, the binding result in test [5] was “binds”. For YSEKVTEFML, the binding result in test [9] is reported as “binds”. Regarding HPEYNRPLL, the binding result in test [10] and in [11] was “binds” each time. With LLSHGAVIEV, the binding result in [12] is listed as “binds”.

Values taken from patent US20240156961A1, “TISSUE-SPECIFIC ANTIGENS FOR CANCER IMMUNOTHERAPY” (priority 2020, published 2024).
